Assay results taken from article PMC3458052, “Single Amino Acid Substitutions in the Chemotactic Sequence of Urokinase Receptor Modulate Cell Migration and Invasion” (PLoS ONE, 2012).

Target: T1, uPAR carrying the S90P substitution (human, UniProt Q03405 23-305, S90P)
T1 construct: human uPAR, whole cDNA in pcDNA3 with S90P made by site-specific mutagenesis, on 293 cells; also called uPAR^S90P; source: on intact adherent cells and in RIPA lysate
Test: radioligand binding; 10 nM ^125I-Vn with increasing unlabeled Vn on adherent transfected 293 clones (2×10^5 cells/well), 3 hours at 4°C, binding buffer DMEM, 1 mg/ml BSA, 10 mM Hepes pH 7.4; surface-bound label recovered by acid wash pH 3.0; apparent Kd; cells also carry endogenous αvβ5
Conditions: one partner purified

T1 sequence (Q03405 23-305 S112P): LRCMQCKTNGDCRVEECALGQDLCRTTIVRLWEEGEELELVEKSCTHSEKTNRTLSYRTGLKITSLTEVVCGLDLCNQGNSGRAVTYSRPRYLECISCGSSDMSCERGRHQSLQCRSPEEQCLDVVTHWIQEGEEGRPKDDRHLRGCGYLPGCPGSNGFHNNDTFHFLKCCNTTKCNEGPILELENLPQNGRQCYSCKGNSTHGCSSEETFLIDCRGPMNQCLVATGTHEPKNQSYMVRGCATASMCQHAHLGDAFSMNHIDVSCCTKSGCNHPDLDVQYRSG

IC50: ~0.01 µM
B1: vitronectin (ligand, UniProt P04004 20-478, looked up)
chain: DQESCKGRCTEGFNVDKKCQCDELCSYYQSCCTDYTAECKPQVTRGDVFTMPEDEYTVYDDGEEKNNATVHEQVGGPSLTSDLQAQSKGNPEQTPVLKPEEEAPAPEVGASKPEGIDSRPETLHPGRPQPPAEEELCSGKPFDAFTDLKNGSLFAFRGQYCYELDEKAVRPGYPKLIRDVWGIEGPIDAAFTRINCQGKTYLFKGSQYWRFEDGVLDPDYPRNISDGFDGIPDNVDAALALPAHSYSGRERVYFFKGKQYWEYQFQHQPSQEECEGSSLSAVFEHFAMMQRDSWEDIFELLFWGRTSAGTRQPQFISRDWHGVPGQVDAAMAGRIYISGMAPRPSLAKKQRFRHRNRKGYRSQRGHSRGRNQNSRRPSRATWLSLFSSEESNLGANNYDDYRMDWLVPATCEPIQSVFFFSGDKYYRVNLRTRRVDTVDPPYPRSIAQYWLGCPAPGHL
modifications: ^125I (radio-iodinated with Na^125I using IODO-BEADS) on the tracer; the competitor is unlabeled
notes: vitronectin (Vn), bought from Promega; also called Vn; ^125I-Vn; source: bought: Promega
